In paper PMC3122231 one finds Kd, koff and fraction bound in the first sedimentation data, which are given here for two substances.

The target of test [1] is F-actin prepared from rabbit skeletal muscle (rabbit) (UniProt P68135). The experiment in a line: co-sedimentation.
The target of test [2] is rhodamine-phalloidin-labeled, 10% biotinylated filamentous actin (UniProt P68135). The experiment in a line: optical trapping.
Test [3] concerns the target F-actin prepared from rabbit skeletal muscle (rabbit) (UniProt P68135). The experiment in a line: co-sedimentation. The source holds these as a separate data set.

Where two headings read alike, the source gives them in different places.

Take “Drosophila myosin-18 M-PDZ (minimal motor domain construct with the N-terminal PDZ domain) (domain or fragment)”: the Kd – broadly, a measure of binding affinity in units of concentration – in test [1] was 1.5 µM. For the same substance, the koff – broadly, the rate constant with which the complex falls apart – in test [2] was determined as 94.2 s⁻¹. Further, in test [3], the Kd stood at 2.6 µM and the fraction bound in the first sedimentation at 20 μM actin is 54.9%.

Regarding “Drosophila myosin-18 M-ΔPDZ (minimal motor domain construct without the PDZ domain) (domain or fragment)”, the Kd in test [1] and in test [3] was 1 µM each time. The same substance registered a koff in test [2] of 57 s⁻¹.
